Measurements reported in paper PMC7917791.

Target: HAP1 phage capsid (T4 phage mutant with a nonsense mutation in the hoc gene, no functional Hoc protein on the capsid) (T4 phage (mutant HAP1))
Assay: SEC; RFP-Hoc and new HAP1 virions produced together in infected E. coli; filtered lysate on Sepharose 4B (2.5 x 95 cm), 0.063 M phosphate buffer pH 7.2, 0.3 mL/min; phages eluted in the highest molecular weight fraction (A), non-incorporated RFP-Hoc in fraction B; fluorescence and titer of the fractions measured

Sequence of RFP-Hoc fusion (red fluorescent protein fused to the N-terminal end of the T4 phage Hoc protein) (P18056 whole entry, the tested form may be a part): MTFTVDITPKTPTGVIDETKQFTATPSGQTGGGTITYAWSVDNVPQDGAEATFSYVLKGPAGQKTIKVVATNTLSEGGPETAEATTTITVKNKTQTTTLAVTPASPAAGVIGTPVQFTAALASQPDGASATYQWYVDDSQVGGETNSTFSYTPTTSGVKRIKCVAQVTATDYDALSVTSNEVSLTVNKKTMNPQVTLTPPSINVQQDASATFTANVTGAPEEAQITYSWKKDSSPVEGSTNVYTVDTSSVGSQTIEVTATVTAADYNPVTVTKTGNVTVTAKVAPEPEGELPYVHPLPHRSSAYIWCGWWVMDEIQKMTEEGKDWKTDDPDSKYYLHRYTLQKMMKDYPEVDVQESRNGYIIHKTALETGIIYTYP

Substance “RFP-Hoc fusion (red fluorescent protein fused to the N-terminal end of the T4 phage Hoc protein) (from UniProt P18056 1-376) (natural protein)” has a fluorescence of the phage fraction A after size exclusion chromatography of 5.12e+06 a.u.
